Where “and” joins values, the source holds several entries; their conditions need not be identical. Equal values may be shown once. Each block holds one binder with its values, some of them ahead of it.
How the values were obtained:
[1] = target: human DLL1 protein (Acro, Cat. No. DL1-H52H8) (human) (UniProt O00548); assay: ELISA, coated hDLL1; maximum over 0.1, 1, 10, 100 nM antibody
[2] = target: human DLL4 protein (human) (UniProt Q9NR61); assay: ELISA, maximum over 0.1-100 nM
[3] = target: human DLL1 protein (human) (UniProt O00548); assay: ELISA, maximum over 0.1-100 nM
Chain of human DLL1 protein (human) (O00548 18-540 limits assumed): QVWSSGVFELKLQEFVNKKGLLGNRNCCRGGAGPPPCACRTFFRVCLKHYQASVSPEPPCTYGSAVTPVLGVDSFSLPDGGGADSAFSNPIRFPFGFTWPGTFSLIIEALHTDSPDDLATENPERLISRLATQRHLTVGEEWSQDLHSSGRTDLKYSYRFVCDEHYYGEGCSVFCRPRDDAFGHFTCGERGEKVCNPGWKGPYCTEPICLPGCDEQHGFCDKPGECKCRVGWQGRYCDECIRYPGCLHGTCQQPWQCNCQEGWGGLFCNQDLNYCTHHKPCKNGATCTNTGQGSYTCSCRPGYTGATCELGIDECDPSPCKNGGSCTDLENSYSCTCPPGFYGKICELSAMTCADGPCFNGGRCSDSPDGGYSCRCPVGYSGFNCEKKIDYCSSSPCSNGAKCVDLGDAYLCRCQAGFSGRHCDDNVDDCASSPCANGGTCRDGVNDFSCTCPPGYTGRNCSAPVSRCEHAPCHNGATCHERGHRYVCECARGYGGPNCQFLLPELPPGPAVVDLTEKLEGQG

[4] = target: DLL3 endogenously expressed on NCI-H82 cells (UniProt Q9NYJ7); assay: FACS on NCI-H82 cells; antibody 0.16 nM
Chain of DLL3 endogenously expressed on NCI-H82 cells (Q9NYJ7 27-618): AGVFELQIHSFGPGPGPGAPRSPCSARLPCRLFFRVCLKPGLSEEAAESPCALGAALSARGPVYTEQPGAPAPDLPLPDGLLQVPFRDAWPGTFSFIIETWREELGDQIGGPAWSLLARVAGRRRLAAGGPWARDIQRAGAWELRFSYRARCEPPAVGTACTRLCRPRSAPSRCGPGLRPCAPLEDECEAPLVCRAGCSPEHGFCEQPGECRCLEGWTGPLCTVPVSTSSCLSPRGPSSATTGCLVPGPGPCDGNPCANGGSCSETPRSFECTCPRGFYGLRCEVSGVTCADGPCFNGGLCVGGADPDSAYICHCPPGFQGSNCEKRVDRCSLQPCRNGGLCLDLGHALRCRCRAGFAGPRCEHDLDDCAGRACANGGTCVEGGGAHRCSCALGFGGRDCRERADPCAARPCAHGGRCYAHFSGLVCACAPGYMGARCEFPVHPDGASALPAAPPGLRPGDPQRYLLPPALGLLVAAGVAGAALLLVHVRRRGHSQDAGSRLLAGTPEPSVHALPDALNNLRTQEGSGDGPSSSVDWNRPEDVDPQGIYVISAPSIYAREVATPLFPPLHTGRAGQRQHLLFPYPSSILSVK

[5] = target: human DLL3 protein expressed on CHO-K1 recombinant cells (human DLL3 extracellular segment fused to EpCAM transmembrane and intracellular regions) (human) (UniProt Q9NYJ7); assay: FACS, CHO-K1 hDLL3 cells, 4 nM antibody
Chain of human DLL3 protein expressed on CHO-K1 recombinant cells (human DLL3 extracellular segment fused to EpCAM transmembrane and intracellular regions) (human) (Q9NYJ7 other isoform, or with tags, fused parts or gaps limits assumed): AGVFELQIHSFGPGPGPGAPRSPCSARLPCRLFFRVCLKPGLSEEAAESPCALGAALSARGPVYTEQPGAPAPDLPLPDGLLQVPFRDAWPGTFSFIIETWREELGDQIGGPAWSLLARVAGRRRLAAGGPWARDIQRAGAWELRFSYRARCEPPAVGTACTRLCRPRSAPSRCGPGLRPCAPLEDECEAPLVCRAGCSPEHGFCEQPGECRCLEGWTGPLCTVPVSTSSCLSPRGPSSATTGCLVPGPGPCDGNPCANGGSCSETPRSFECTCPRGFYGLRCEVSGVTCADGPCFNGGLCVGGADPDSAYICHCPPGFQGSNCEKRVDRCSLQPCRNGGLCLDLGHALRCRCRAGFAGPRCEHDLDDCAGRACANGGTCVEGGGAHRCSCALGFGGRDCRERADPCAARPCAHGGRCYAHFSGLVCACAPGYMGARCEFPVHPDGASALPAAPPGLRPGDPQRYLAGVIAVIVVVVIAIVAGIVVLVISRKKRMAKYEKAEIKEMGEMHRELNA

[6] = target: DLL3 endogenously expressed on NCI-H82 cells (UniProt Q9NYJ7); assay: FACS on NCI-H82 cells; antibody 0.00128 nM
[7] = target: human DLL3 protein expressed on CHO-K1 recombinant cells (human DLL3 extracellular segment fused to EpCAM transmembrane and intracellular regions) (human) (UniProt Q9NYJ7); assay: FACS, CHO-K1 hDLL3 cells, 20 nM antibody
[8] = target: DLL3 endogenously expressed on NCI-H82 cells (UniProt Q9NYJ7); assay: FACS on NCI-H82 cells; antibody 100 nM
[9] = target: human delta-like ligand 3 (DLL3) on SHP77 cells (human) (UniProt Q9NYJ7); assay: FACS on SHP77 cells
Chain of human delta-like ligand 3 (DLL3) on SHP77 cells (human) (Q9NYJ7 27-618, stated change not applied): as the sequence (Q9NYJ7 27-618) above

[10] = target: DLL3 endogenously expressed on NCI-H82 cells (UniProt Q9NYJ7); assay: FACS on NCI-H82 cells; antibody 0.8 nM
[11] = target: human DLL3 protein expressed on CHO-K1 recombinant cells (human DLL3 extracellular segment fused to EpCAM transmembrane and intracellular regions) (human) (UniProt Q9NYJ7); assay: FACS, CHO-K1 hDLL3 cells, 0.16 nM antibody
[12] = target: human DLL4 protein (Acro, Cat. No. DL4-H5227) (human) (UniProt Q9NR61); assay: ELISA, coated hDLL4; maximum over 0.1, 1, 10, 100 nM antibody
Chain of human DLL4 protein (Acro, Cat. No. DL4-H5227) (human) (Q9NR61 27-524 limits assumed): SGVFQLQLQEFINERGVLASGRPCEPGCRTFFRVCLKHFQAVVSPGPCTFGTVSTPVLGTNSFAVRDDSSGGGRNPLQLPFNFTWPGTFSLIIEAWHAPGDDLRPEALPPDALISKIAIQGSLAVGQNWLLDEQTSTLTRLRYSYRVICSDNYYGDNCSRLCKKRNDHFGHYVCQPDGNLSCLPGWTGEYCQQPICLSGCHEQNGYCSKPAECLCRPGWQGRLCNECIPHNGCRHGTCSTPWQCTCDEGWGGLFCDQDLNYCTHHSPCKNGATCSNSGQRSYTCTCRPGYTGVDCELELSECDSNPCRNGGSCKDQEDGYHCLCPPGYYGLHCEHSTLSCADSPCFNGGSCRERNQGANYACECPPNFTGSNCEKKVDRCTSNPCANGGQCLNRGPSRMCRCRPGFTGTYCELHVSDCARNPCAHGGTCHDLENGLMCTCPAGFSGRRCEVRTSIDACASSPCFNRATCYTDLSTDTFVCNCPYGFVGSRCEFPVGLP

[13] = target: DLL3 endogenously expressed on NCI-H82 cells (UniProt Q9NYJ7); assay: FACS on NCI-H82 cells; antibody 0.0064 nM
[14] = target: human DLL3 protein expressed on CHO-K1 recombinant cells (human DLL3 extracellular segment fused to EpCAM transmembrane and intracellular regions) (human) (UniProt Q9NYJ7); assay: FACS, CHO-K1 hDLL3 cells, 0.00128 nM antibody
[15] = target: human DLL3 protein expressed on CHO-K1 recombinant cells (human DLL3 extracellular segment fused to EpCAM transmembrane and intracellular regions) (human) (UniProt Q9NYJ7); assay: FACS, CHO-K1 hDLL3 cells, 100 nM antibody
[16] = target: human DLL3 protein expressed on CHO-K1 recombinant cells (human DLL3 extracellular segment fused to EpCAM transmembrane and intracellular regions) (human) (UniProt Q9NYJ7); assay: FACS, CHO-K1 hDLL3 cells, 0.032 nM antibody
[17] = target: human DLL3 protein expressed on CHO-K1 recombinant cells (human DLL3 extracellular segment fused to EpCAM transmembrane and intracellular regions) (human) (UniProt Q9NYJ7); assay: FACS, CHO-K1 hDLL3 cells, 0.8 nM antibody
[18] = target: DLL3 endogenously expressed on NCI-H82 cells (UniProt Q9NYJ7); assay: FACS on NCI-H82 cells; antibody 20 nM
[19] = target: DLL3 endogenously expressed on NCI-H82 cells (UniProt Q9NYJ7); assay: FACS on NCI-H82 cells; antibody 4 nM
[20] = target: DLL3 endogenously expressed on NCI-H82 cells (UniProt Q9NYJ7); assay: FACS on NCI-H82 cells; antibody 0.032 nM
[21] = target: human DLL3 protein expressed on CHO-K1 recombinant cells (human DLL3 extracellular segment fused to EpCAM transmembrane and intracellular regions) (human) (UniProt Q9NYJ7); assay: FACS, CHO-K1 hDLL3 cells, 0.0064 nM antibody
[22] = target: human DLL3 endogenously expressed on SHP77 and NCI-H82 cells (human) (UniProt Q9NYJ7); assay: FACS SHP77 cells, 20 nM
Chain of human DLL3 endogenously expressed on SHP77 and NCI-H82 cells (human) (Q9NYJ7 27-618): as the sequence (Q9NYJ7 27-618) above

[23] = target: human DLL3 endogenously expressed on SHP77 and NCI-H82 cells (human) (UniProt Q9NYJ7); assay: FACS SHP77 cells, 0.032 nM
[24] = target: human DLL3 endogenously expressed on SHP77 and NCI-H82 cells (human) (UniProt Q9NYJ7); assay: FACS SHP77 cells, 0.8 nM
[25] = target: monkey DLL3 on CHO K1-cyno DLL3 cells (cynomolgus monkey DLL3 extracellular segment joined to EpCAM transmembrane and intracellular regions) (cynomolgus monkey); assay: FACS, CHO K1-cyno DLL3 cells, 0.00128 nM antibody
Chain of monkey DLL3 on CHO K1-cyno DLL3 cells (cynomolgus monkey DLL3 extracellular segment joined to EpCAM transmembrane and intracellular regions) (cynomolgus monkey) (chain, as listed by the source limits assumed): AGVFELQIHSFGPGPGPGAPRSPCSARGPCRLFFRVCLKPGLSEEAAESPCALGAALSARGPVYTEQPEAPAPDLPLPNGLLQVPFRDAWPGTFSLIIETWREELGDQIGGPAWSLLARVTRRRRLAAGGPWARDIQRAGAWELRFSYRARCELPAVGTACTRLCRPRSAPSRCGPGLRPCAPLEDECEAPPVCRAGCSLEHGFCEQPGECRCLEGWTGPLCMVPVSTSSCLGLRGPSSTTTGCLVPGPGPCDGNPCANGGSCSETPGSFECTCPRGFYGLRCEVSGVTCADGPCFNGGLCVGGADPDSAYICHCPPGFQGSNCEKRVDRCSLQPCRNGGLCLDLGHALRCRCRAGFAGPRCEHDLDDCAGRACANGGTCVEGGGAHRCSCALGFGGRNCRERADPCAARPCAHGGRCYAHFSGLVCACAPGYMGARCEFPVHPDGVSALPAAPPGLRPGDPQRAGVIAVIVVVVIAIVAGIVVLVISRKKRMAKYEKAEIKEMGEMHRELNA

[26] = target: monkey DLL3 on CHO K1-cyno DLL3 cells (cynomolgus monkey DLL3 extracellular segment joined to EpCAM transmembrane and intracellular regions) (cynomolgus monkey); assay: FACS, CHO K1-cyno DLL3 cells, 20 nM antibody
[27] = target: monkey DLL3 on CHO K1-cyno DLL3 cells (cynomolgus monkey DLL3 extracellular segment joined to EpCAM transmembrane and intracellular regions) (cynomolgus monkey); assay: FACS, CHO K1-cyno DLL3 cells, 100 nM antibody
[28] = target: human DLL3 endogenously expressed on SHP77 and NCI-H82 cells (human) (UniProt Q9NYJ7); assay: FACS SHP77 cells, 0.0064 nM
[29] = target: human DLL3 endogenously expressed on SHP77 and NCI-H82 cells (human) (UniProt Q9NYJ7); assay: FACS SHP77 cells, 0.00128 nM
[30] = target: human DLL3 endogenously expressed on SHP77 and NCI-H82 cells (human) (UniProt Q9NYJ7); assay: FACS SHP77 cells, 100 nM
[31] = target: monkey DLL3 on CHO K1-cyno DLL3 cells (cynomolgus monkey DLL3 extracellular segment joined to EpCAM transmembrane and intracellular regions) (cynomolgus monkey); assay: FACS, CHO K1-cyno DLL3 cells, 4 nM antibody
[32] = target: human DLL3 endogenously expressed on SHP77 and NCI-H82 cells (human) (UniProt Q9NYJ7); assay: FACS SHP77 cells, 4 nM
[33] = target: monkey DLL3 on CHO K1-cyno DLL3 cells (cynomolgus monkey DLL3 extracellular segment joined to EpCAM transmembrane and intracellular regions) (cynomolgus monkey); assay: FACS, CHO K1-cyno DLL3 cells, 0.16 nM antibody
[34] = target: monkey DLL3 on CHO K1-cyno DLL3 cells (cynomolgus monkey DLL3 extracellular segment joined to EpCAM transmembrane and intracellular regions) (cynomolgus monkey); assay: FACS, CHO K1-cyno DLL3 cells, 0.0064 nM antibody
[35] = target: monkey DLL3 on CHO K1-cyno DLL3 cells (cynomolgus monkey DLL3 extracellular segment joined to EpCAM transmembrane and intracellular regions) (cynomolgus monkey); assay: FACS, CHO K1-cyno DLL3 cells, 0.032 nM antibody
[36] = target: monkey DLL3 on CHO K1-cyno DLL3 cells (cynomolgus monkey DLL3 extracellular segment joined to EpCAM transmembrane and intracellular regions) (cynomolgus monkey); assay: FACS, CHO K1-cyno DLL3 cells, 0.8 nM antibody
[37] = target: human DLL3 endogenously expressed on SHP77 and NCI-H82 cells (human) (UniProt Q9NYJ7); assay: FACS SHP77 cells, 0.16 nM

Chain of human DLL4 protein (human) (Q9NR61 27-524 limits assumed): as the sequence (Q9NR61 27-524 limits assumed) above
Chain of human DLL1 protein (Acro, Cat. No. DL1-H52H8) (human) (O00548 18-540 limits assumed): as the sequence (O00548 18-540 limits assumed) above

- Emax of OD450 nm binding value [1]: 0.14 OD450 nm
- Emax of OD450 nm binding value [2]: 0.05 OD450 and 0.04 OD450
- Emax of OD450 nm binding value [3]: 0.05 OD450 and 0.07 OD450
- MFI [4]: 256
- MFI [5]: 12600 MFI
- MFI [6]: 112
- MFI [7]: 13400 MFI
- MFI [8]: 1010
- MFI at 0.00128 nM [9]: 101 MFI
- MFI at 0.0064 nM [9]: 105 MFI
- MFI at 0.032 nM [9]: 110 MFI
- MFI at 0.16 nM [9]: 148 MFI
- MFI at 0.8 nM [9]: 252 MFI
- MFI at 4 nM [9]: 498 MFI
- MFI at 20 nM [9]: 807 MFI
- MFI at 100 nM [9]: 967 MFI
- MFI [10]: 518
- MFI [11]: 2660 MFI
- Emax of OD450 nm binding value [12]: 0.06 OD450 nm
- MFI [13]: 121
- MFI [14]: 310 MFI
- MFI [15]: 13200 MFI
- MFI [16]: 924 MFI
- MFI [17]: 7770 MFI
- MFI [18]: 882
- MFI [19]: 795
- MFI [20]: 155
- MFI [21]: 452 MFI
B1: BI3 (antibody, human IgG1, kappa, V domains shown)
VH: QVQLVQSGAEVKKPGASVKVSCKASGYTFTSYYVHWVRQAPGQGLEWMVIINPGGGTTSYAQKFLGRVTMTRDTSTNTVYMELKSLRSEDTAVYYCARGEAVTGNYFYYGMDVWGQGTTVTVSS
VL: DIQMTQSPSAMSASVGDRVTITCRASQGISNYLVWFQQKPGKAPKRLIYAVSSLYSGVPSRFSGSGSGTEFTLTISSLQPEDFATYYCLQHDSYPYTFGQGTKLEIKR

- MFI [22]: 1280 MFI
- MFI [23]: 351 MFI
- MFI [24]: 732 MFI
- MFI [25]: 163 MFI
- MFI [26]: 8420 MFI
- MFI [27]: 10600 MFI
- MFI [28]: 197 MFI
- MFI [29]: 182 MFI
- MFI [30]: 976 MFI
- MFI [31]: 7470 MFI
- MFI [32]: 789 MFI
- MFI [33]: 1820 MFI
- MFI [34]: 243 MFI
- MFI [35]: 566 MFI
- MFI [36]: 5570 MFI
- MFI [37]: 566 MFI
B2: mab003 scFv-hFc (Fc fusion, part only; not given: VL-VH linker and human IgG1 Fc, not shown: another chain or arm of the molecule; a dimerising Fc or GST; small tags and cut ends)
scFv (part 1 of 2): DVQITQSPSYLAASPGETITINCRASKSISKYLAWYQEKPGKTNKLLIYSGSTLHSGIPSRFSGSGSGTDFTLTISSLEPEDFAIYYCQQHNEYPLTFGGGTKLELK
scFv (part 2 of 2): QVQLQQSGTELMKPGASVKLSCKATGYTFTGNWIEWVKQRPGHGLEWIGEILPGTGSTQYNEKFKGKATFTADPSSNTAYMQLSSLTTEDSAIYYCARWGSTVVAYDYWGQGTTLTVSS

- Emax of OD450 nm binding value [2]: 0.06 OD450
- Emax of OD450 nm binding value [3]: 1.16 OD450
- MFI [22]: 855 MFI
- MFI [23]: 278 MFI
- MFI [24]: 619 MFI
- MFI [28]: 161 MFI
- MFI [29]: 113 MFI
- MFI [30]: 1140 MFI
- MFI [32]: 707 MFI
- MFI [37]: 523 MFI
B3: mab010 scFv-hFc (Fc fusion, not shown: small tags and cut ends; a dimerising Fc or GST)
scFv (part 1 of 2): DIQMTQSPASLSVSVGETVTITCRASENINSNLAWYQQKQGKSPQLLVYAATNLADGVPSRFSGSGSGTQFSLKISGLQSEDFGSYYCQHFWGLPWTFGGGTKLEIR
scFv (part 2 of 2): QVQLQQSGAELARPGASMKLSCKASGYTFTSYGISWVKQITGQGLEWIGEIFPRSGNTYDNENFRGKATLTADKSSSTAYLEVRSLTSEDSAVYFCARTTVFAPYYFDYWGQGTTLTVSS
